Target: GST-human NOGO-A56 (human) [GST: P08515]
Experiment: SPR (Biacore 3000), GST-human NOGO-A56 on CM5, antibody as analyte; single experiment

Sequence of GST-human NOGO-A56 (human) [GST: P08515] (P08515 1-218, tags or fused parts left off): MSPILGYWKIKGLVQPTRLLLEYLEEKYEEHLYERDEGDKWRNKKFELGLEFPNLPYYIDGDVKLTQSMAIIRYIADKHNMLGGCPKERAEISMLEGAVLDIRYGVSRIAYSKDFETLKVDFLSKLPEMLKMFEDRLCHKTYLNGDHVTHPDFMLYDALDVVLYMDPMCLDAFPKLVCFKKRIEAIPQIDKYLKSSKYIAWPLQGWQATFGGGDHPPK

11C7 (chimeric version) (antibody)
Kd: 0.057 nM | koff: 8.25e-05 s⁻¹ | kon: 1.44e+06 M⁻¹ s⁻¹

From US20060029603A1
